The data set deals with the molecule itself. Put plainly: mass photometry; self-association, monomers to hexamer; 8.7 nM gp4 (hexamer concentration) in 40 mM Tris-HCl pH 7.5, 150 mM KCl, 10 mM MgCl2, 25 °C, 15 min, with 10 nM 50-nt ssDNA and 1 mM [β,γ-CH2] dTTP; Refeyn OneMP.

As usually defined, the stoichiometry N is the number of molecules, sites or subunits per partner or assembly.

B1: bacteriophage T7 primase-helicase gp4, wild type (63 kDa form) (enzyme, UniProt P03692 1-566, looked up)
chain: MDNSHDSDSVFLYHIPCDNCGSSDGNSLFSDGHTFCYVCEKWTAGNEDTKERASKRKPSGGKPMTYNVWNFGESNGRYSALTARGISKETCQKAGYWIAKVDGVMYQVADYRDQNGNIVSQKVRDKDKNFKTTGSHKSDALFGKHLWNGGKKIVVTEGEIDMLTVMELQDCKYPVVSLGHGASAAKKTCAANYEYFDQFEQIILMFDMDEAGRKAVEEAAQVLPAGKVRVAVLPCKDANECHLNGHDREIMEQVWNAGPWIPDGVVSALSLRERIREHLSSEESVGLLFSGCTGINDKTLGARGGEVIMVTSGSGMGKSTFVRQQALQWGTAMGKKVGLAMLEESVEETAEDLIGLHNRVRLRQSDSLKREIIENGKFDQWFDELFGNDTFHLYDSFAEAETDRLLAKLAYMRSGLGCDVIILDHISIVVSASGESDERKMIDNLMTKLKGFAKSTGVVLVVICHLKNPDKGKAHEEGRPVSITDLRGSGALRQLSDTIIALERNQQGDMPNLVLVRILKCRFTGDTGIAGYMEYNKETGWLEPSSYSGEEESHSESTDWSNDTDF
notes: bacteriophage T7 gene 4 primase-helicase, full-length 63 kDa form (residues 1-566); also called WT gp4; gp4A
B1: the “stoichiometry N” value was determined as 6.

B2: bacteriophage T7 primase-helicase gp4 Y111A (63 kDa form) (enzyme, UniProt P03692 1-566, looked up)
chain: MDNSHDSDSVFLYHIPCDNCGSSDGNSLFSDGHTFCYVCEKWTAGNEDTKERASKRKPSGGKPMTYNVWNFGESNGRYSALTARGISKETCQKAGYWIAKVDGVMYQVADARDQNGNIVSQKVRDKDKNFKTTGSHKSDALFGKHLWNGGKKIVVTEGEIDMLTVMELQDCKYPVVSLGHGASAAKKTCAANYEYFDQFEQIILMFDMDEAGRKAVEEAAQVLPAGKVRVAVLPCKDANECHLNGHDREIMEQVWNAGPWIPDGVVSALSLRERIREHLSSEESVGLLFSGCTGINDKTLGARGGEVIMVTSGSGMGKSTFVRQQALQWGTAMGKKVGLAMLEESVEETAEDLIGLHNRVRLRQSDSLKREIIENGKFDQWFDELFGNDTFHLYDSFAEAETDRLLAKLAYMRSGLGCDVIILDHISIVVSASGESDERKMIDNLMTKLKGFAKSTGVVLVVICHLKNPDKGKAHEEGRPVSITDLRGSGALRQLSDTIIALERNQQGDMPNLVLVRILKCRFTGDTGIAGYMEYNKETGWLEPSSYSGEEESHSESTDWSNDTDF
notes: bacteriophage T7 gene 4 primase-helicase, 63 kDa form (residues 1-566), with Y111A made by site-directed mutagenesis on pET28-gp4A; also called Y111A gp4; gp4-Y11A [sic]
With B2, the “stoichiometry N” value turned out to be 6.

Values taken from publication PMC9198812, “Residues located in the primase domain of the bacteriophage T7 primase-helicase are essential for loading the hexameric complex onto DNA” (The Journal of Biological Chemistry, 2022).
